Laboratory results as given in patent publication US20140322196A1.

Key:
[1] = target: Hemagglutinin (HA) of Influenza SW [change] 1089/09 swine pandemic H1N1 (inactivated subunits, vaccine) (Influenza A virus SW [change] swine pandemic H1N1); assay: cell-based or functional assay
[2] = target: Hemagglutinin (HA) of Avian 29/05/06 H5N1 (inactivated vaccine) (Influenza A virus Avian 29/05/06 H5N1); assay: cell-based or functional assay

B1: bLf C-lobe (aa 285-689) (protein)
chain: SFQLFGSPPGQRDLLFKDSALGFLRIPSKVDSALYLGSRYLTTLKNLRETAEEVKARYTRVVWCAVGPEEQKKCQQWSQQSGQNVTCATASTTDDCIVLVLKGEADALNLDGGYIYTAGKCGLVPVLAENRKSSKHSSLDCVLRPTEGYLAVAVVKKANEGLTWNSLKDKKSCHTAVDRTAGWNIPMGLIVNQTGSCAFDEFFSQSCAPGADPKSRLCALCAGDDQGLDKCVPNSKEKYYGYTGAFRCLAEDVGDVAFVKNDTVWENTNGESTADWAKNLNREDFRLLCLDGTRKPVTEAQSCHLAVAPNHAVVSRSDRAAHVKQVLLHQQALFGKNGKNCPDKFCLFKSETKNLLFNDNTECLAKLGGRPTYEEYLGTEYVTAIANLKKCSTSPLLEACAFLTR
For B1, the activity on viral hemagglutination (HI) [1] was 46.5 fM and the activity on viral hemagglutination (HI) [2] was 2.9 pM.

B2: bLf C-lobe (aa 345-689) (protein)
chain: VVWCAVGPEEQKKCQQWSQQSGQNVTCATASTTDDCIVLVLKGEADALNLDGGYIYTAGKCGLVPVLAENRKSSKHSSLDCVLRPTEGYLAVAVVKKANEGLTWNSLKDKKSCHTAVDRTAGWNIPMGLIVNQTGSCAFDEFFSQSCAPGADPKSRLCALCAGDDQGLDKCVPNSKEKYYGYTGAFRCLAEDVGDVAFVKNDTVWENTNGESTADWAKNLNREDFRLLCLDGTRKPVTEAQSCHLAVAPNHAVVSRSDRAAHVKQVLLHQQALFGKNGKNCPDKFCLFKSETKNLLFNDNTECLAKLGGRPTYEEYLGTEYVTAIANLKKCSTSPLLEACAFLTR
Work on B2 yielded an activity on viral hemagglutination (HI) [1] of 46.5 fM and an activity on viral hemagglutination (HI) [2] of 2.4 pM.
